Biological target: recombinant HDM2 17-125 (human) (UniProt Q00987)
Assay: fluorescence polarization, FITC-labeled peptide with HDM2 17-125

Chain of recombinant HDM2 17-125 (human) (Q00987 17-125 limits assumed): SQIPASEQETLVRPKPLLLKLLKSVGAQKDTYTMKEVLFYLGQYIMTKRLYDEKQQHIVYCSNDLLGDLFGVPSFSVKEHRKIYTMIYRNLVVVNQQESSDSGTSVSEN

Kd: > 4 µM
Substance: FITC-SAH-p53-8F19A (peptide)

Reference: patent publication US20170081379A1
